The supplement of paper PMC10065799, “High-throughput profiling of sequence recognition by tyrosine kinases and SH2 domains using bacterial peptide display” (eLife, 2023)
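Further: 11-residue human phosphosite peptides and single-mutation variants displayed on the E. coli surface, counted by deep sequencing, each peptide's frequency after selection divided by its frequency in the unselected input library; frequency after pTyr selection over input frequency; kinase dosed for 20-30% of maximal phosphorylation in three min.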

What follows are sequences tested on AncSZ (assay: phosphorylation enrichment, bacterial display (enrichment ratio); higher = better substrate or ligand; peptides without Tyr show the background).
With RPPFTYATLIR [FOXP3_Y342] the phosphorylation enrichment was 1.14. ICFSDYVEVAD [PHACTR1_Y525_R521C] gave a phosphorylation enrichment of 2.01. Sequence NGSKGYAYVHF [PABPC5_Y147] has a phosphorylation enrichment of 1.08. For KENITYMKREQ [L1TD1_Y24], the phosphorylation enrichment was 0.827. In the case of KFFRVYQGQQP [MUTYH_Y494_V490F], the phosphorylation enrichment is reported as 0.898. With SSVKLYRVFCD [FGB_Y266_P265L_YF] the phosphorylation enrichment was 0.945. In the case of ELCSEYHKSRK [SPINK5_Y440_R441H], the phosphorylation enrichment is reported as 0.73. HRNGMYGLHQD [SGSH_Y89_Q85R] gave a phosphorylation enrichment of 0.515. QEMMEYRRQIQ [DES_Y324_H326R] showed a phosphorylation enrichment of 0.878. With LTAEVYFPSIK [C5orf64_Y60] the phosphorylation enrichment was 1.78. KNAEKYAEEDW [HSPA9_Y568_R573W] showed a phosphorylation enrichment of 1.32. Sequence GEDEPYSEPFA [APBA1_Y183_YF] has a phosphorylation enrichment of 1.34. VKMLEYRGKDV [CASP5_Y74_L75R] showed a phosphorylation enrichment of 0.68. For SVVVPSEPPEV [TP53_Y220_Y220S], the phosphorylation enrichment was 0.971. In the case of DYLEKYYKFGS [NNMT_Y24], the phosphorylation enrichment is reported as 0.631. Sequence NTGFFYDLFGG [PTPN11_Y63_D61Y_YF] has a phosphorylation enrichment of 1.24. TVSSDYLHPQY [CCPG1_Y569_F566S] was tested, and the phosphorylation enrichment was 1.28. With EYQLPYYNTVP [BMPR1A_Y457_M460T] the phosphorylation enrichment was 4.46. In the case of QNKEDYAGLKE [GSTO1_Y139], the phosphorylation enrichment is reported as 1.34. ERDTVYSSSGV [NELL2_Y350_N347D] gave a phosphorylation enrichment of 0.711. Work on MDDDQYALLTA [EFCAB6_Y675_T680A] yielded a phosphorylation enrichment of 1.35. Sequence GYQPEYGQPAG [SYP_Y278_D277E] has a phosphorylation enrichment of 0.662. CENNRYGMGTS [PDHA1_Y227] showed a phosphorylation enrichment of 0.991. Sequence TLNFCYQQVKS [PTK2_Y148_F147C] has a phosphorylation enrichment of 1.25. Work on RRNTPYSQTMK [TET2_Y819_S817T] yielded a phosphorylation enrichment of 0.55. TFVVLYDAELT [ERCC4_Y581_R576T_YF] gave a phosphorylation enrichment of 1.31. In the case of ANFTEYVATRW [CDKL5_Y171_YF], the phosphorylation enrichment is reported as 0.977. Work on TFRPPYFHRDC [HGD_Y333_N337D_YF] yielded a phosphorylation enrichment of 0.617. PQDVTYAQLHS [LILRB4_Y412] showed a phosphorylation enrichment of 0.959. RIAFQYGDTDL [MYBPC3_Y340_V342D] was tested, and the phosphorylation enrichment was 1.1. For CTTIHYNFMSN [TP53_Y234_C238S_YF], the phosphorylation enrichment was 1.12. Work on LMLVLYGRIFR [HTR1A_Y215] yielded a phosphorylation enrichment of 1.84. Work on AKKKMYSCKTK [AGXT_Y231_R233C] yielded a phosphorylation enrichment of 1.01.

These sequences were tested against EPHB1 (UniProt P54762) in the same assay as above.
Sequence of EPHB1 (P54762 whole entry, looked up): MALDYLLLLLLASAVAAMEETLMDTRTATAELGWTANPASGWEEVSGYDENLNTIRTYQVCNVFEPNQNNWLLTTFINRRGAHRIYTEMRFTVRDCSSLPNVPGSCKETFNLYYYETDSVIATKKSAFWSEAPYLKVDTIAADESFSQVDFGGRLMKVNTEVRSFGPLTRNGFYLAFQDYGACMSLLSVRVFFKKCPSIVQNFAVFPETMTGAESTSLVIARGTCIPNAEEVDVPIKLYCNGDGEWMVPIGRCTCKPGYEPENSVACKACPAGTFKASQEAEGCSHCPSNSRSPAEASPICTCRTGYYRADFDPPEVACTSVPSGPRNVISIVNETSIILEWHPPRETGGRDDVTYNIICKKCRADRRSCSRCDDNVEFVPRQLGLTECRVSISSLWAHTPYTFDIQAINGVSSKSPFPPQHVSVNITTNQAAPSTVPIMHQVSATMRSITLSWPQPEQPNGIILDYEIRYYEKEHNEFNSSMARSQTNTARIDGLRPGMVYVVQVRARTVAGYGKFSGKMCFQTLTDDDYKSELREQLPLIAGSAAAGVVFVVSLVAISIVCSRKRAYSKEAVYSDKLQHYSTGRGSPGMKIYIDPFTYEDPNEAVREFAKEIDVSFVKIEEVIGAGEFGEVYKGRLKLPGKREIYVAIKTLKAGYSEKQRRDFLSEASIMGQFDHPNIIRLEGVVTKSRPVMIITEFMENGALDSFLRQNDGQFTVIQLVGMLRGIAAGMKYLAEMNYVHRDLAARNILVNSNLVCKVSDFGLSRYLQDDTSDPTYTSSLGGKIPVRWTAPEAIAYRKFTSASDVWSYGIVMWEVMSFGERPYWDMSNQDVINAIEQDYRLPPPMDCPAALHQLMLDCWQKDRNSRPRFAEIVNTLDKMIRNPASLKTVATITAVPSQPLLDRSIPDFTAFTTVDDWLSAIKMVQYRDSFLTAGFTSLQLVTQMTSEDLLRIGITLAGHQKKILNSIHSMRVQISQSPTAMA
RPPFTYATLIR [FOXP3_Y342] was tested, and the phosphorylation enrichment was 1.64. In the case of ICFSDYVEVAD [PHACTR1_Y525_R521C], the phosphorylation enrichment is reported as 1.81. Work on NGSKGYAYVHF [PABPC5_Y147] yielded a phosphorylation enrichment of 0.553. KENITYMKREQ [L1TD1_Y24] gave a phosphorylation enrichment of 0.498. KFFRVYQGQQP [MUTYH_Y494_V490F] gave a phosphorylation enrichment of 0.452. In the case of SSVKLYRVFCD [FGB_Y266_P265L_YF], the phosphorylation enrichment is reported as 0.579. ELCSEYHKSRK [SPINK5_Y440_R441H] showed a phosphorylation enrichment of 0.405. Work on HRNGMYGLHQD [SGSH_Y89_Q85R] yielded a phosphorylation enrichment of 0.39. Sequence QEMMEYRRQIQ [DES_Y324_H326R] has a phosphorylation enrichment of 0.523. Sequence LTAEVYFPSIK [C5orf64_Y60] has a phosphorylation enrichment of 0.966. In the case of KNAEKYAEEDW [HSPA9_Y568_R573W], the phosphorylation enrichment is reported as 0.667. GEDEPYSEPFA [APBA1_Y183_YF] gave a phosphorylation enrichment of 0.485. For VKMLEYRGKDV [CASP5_Y74_L75R], the phosphorylation enrichment was 0.459. Work on SVVVPSEPPEV [TP53_Y220_Y220S] yielded a phosphorylation enrichment of 0.598. DYLEKYYKFGS [NNMT_Y24] was tested, and the phosphorylation enrichment was 0.33. NTGFFYDLFGG [PTPN11_Y63_D61Y_YF] gave a phosphorylation enrichment of 0.693. Sequence TVSSDYLHPQY [CCPG1_Y569_F566S] has a phosphorylation enrichment of 0.43. With EYQLPYYNTVP [BMPR1A_Y457_M460T] the phosphorylation enrichment was 0.966. With QNKEDYAGLKE [GSTO1_Y139] the phosphorylation enrichment was 0.494. In the case of ERDTVYSSSGV [NELL2_Y350_N347D], the phosphorylation enrichment is reported as 0.435. MDDDQYALLTA [EFCAB6_Y675_T680A] showed a phosphorylation enrichment of 0.547. For GYQPEYGQPAG [SYP_Y278_D277E], the phosphorylation enrichment was 0.451. With CENNRYGMGTS [PDHA1_Y227] the phosphorylation enrichment was 0.686. Work on TLNFCYQQVKS [PTK2_Y148_F147C] yielded a phosphorylation enrichment of 0.718. Sequence RRNTPYSQTMK [TET2_Y819_S817T] has a phosphorylation enrichment of 0.252. For TFVVLYDAELT [ERCC4_Y581_R576T_YF], the phosphorylation enrichment was 1.18. Work on ANFTEYVATRW [CDKL5_Y171_YF] yielded a phosphorylation enrichment of 0.834. For TFRPPYFHRDC [HGD_Y333_N337D_YF], the phosphorylation enrichment was 0.432. In the case of PQDVTYAQLHS [LILRB4_Y412], the phosphorylation enrichment is reported as 1.22. For RIAFQYGDTDL [MYBPC3_Y340_V342D], the phosphorylation enrichment was 0.743. With CTTIHYNFMSN [TP53_Y234_C238S_YF] the phosphorylation enrichment was 0.621. In the case of LMLVLYGRIFR [HTR1A_Y215], the phosphorylation enrichment is reported as 0.646. For AKKKMYSCKTK [AGXT_Y231_R233C], the phosphorylation enrichment was 0.62.

These sequences were tested against EPHB2 (UniProt P29323) in the same assay as above.
Sequence of EPHB2 (P29323 whole entry, looked up): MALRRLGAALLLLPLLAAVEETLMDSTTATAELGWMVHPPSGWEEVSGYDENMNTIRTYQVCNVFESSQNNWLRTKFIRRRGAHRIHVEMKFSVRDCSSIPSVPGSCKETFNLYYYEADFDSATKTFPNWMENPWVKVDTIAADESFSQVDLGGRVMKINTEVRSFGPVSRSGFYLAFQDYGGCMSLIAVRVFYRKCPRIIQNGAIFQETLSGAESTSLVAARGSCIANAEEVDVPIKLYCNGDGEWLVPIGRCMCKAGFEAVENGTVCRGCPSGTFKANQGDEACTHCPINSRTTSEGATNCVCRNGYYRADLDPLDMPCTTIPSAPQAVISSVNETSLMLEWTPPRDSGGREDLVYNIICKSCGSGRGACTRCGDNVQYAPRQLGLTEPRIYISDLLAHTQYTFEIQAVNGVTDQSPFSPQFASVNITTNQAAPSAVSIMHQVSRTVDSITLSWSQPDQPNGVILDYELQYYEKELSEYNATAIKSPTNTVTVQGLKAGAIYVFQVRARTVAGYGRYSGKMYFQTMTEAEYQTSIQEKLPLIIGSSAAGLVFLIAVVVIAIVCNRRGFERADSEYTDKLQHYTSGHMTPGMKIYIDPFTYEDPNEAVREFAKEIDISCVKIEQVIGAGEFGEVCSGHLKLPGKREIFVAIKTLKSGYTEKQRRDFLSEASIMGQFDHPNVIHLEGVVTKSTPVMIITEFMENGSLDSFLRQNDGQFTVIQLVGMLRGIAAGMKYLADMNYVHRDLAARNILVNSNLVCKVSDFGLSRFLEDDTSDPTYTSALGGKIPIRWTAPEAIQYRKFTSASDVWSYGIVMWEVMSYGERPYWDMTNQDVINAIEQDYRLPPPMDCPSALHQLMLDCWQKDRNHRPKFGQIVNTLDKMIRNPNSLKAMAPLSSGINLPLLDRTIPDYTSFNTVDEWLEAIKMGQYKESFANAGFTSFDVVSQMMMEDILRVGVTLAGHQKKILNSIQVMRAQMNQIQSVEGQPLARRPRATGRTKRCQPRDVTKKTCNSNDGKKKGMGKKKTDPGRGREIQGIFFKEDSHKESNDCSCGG
With RPPFTYATLIR [FOXP3_Y342] the phosphorylation enrichment was 0.737. ICFSDYVEVAD [PHACTR1_Y525_R521C] was tested, and the phosphorylation enrichment was 1.42. NGSKGYAYVHF [PABPC5_Y147] showed a phosphorylation enrichment of 0.61. KENITYMKREQ [L1TD1_Y24] gave a phosphorylation enrichment of 0.514. In the case of KFFRVYQGQQP [MUTYH_Y494_V490F], the phosphorylation enrichment is reported as 0.507. With SSVKLYRVFCD [FGB_Y266_P265L_YF] the phosphorylation enrichment was 0.668. In the case of ELCSEYHKSRK [SPINK5_Y440_R441H], the phosphorylation enrichment is reported as 0.412. With HRNGMYGLHQD [SGSH_Y89_Q85R] the phosphorylation enrichment was 0.51. With QEMMEYRRQIQ [DES_Y324_H326R] the phosphorylation enrichment was 0.601. Work on LTAEVYFPSIK [C5orf64_Y60] yielded a phosphorylation enrichment of 0.906. KNAEKYAEEDW [HSPA9_Y568_R573W] was tested, and the phosphorylation enrichment was 0.727. Work on GEDEPYSEPFA [APBA1_Y183_YF] yielded a phosphorylation enrichment of 0.523. In the case of VKMLEYRGKDV [CASP5_Y74_L75R], the phosphorylation enrichment is reported as 0.416. SVVVPSEPPEV [TP53_Y220_Y220S] showed a phosphorylation enrichment of 0.642. Work on DYLEKYYKFGS [NNMT_Y24] yielded a phosphorylation enrichment of 0.436. With NTGFFYDLFGG [PTPN11_Y63_D61Y_YF] the phosphorylation enrichment was 0.659. For TVSSDYLHPQY [CCPG1_Y569_F566S], the phosphorylation enrichment was 0.531. Work on EYQLPYYNTVP [BMPR1A_Y457_M460T] yielded a phosphorylation enrichment of 1.19. Work on QNKEDYAGLKE [GSTO1_Y139] yielded a phosphorylation enrichment of 1.29. With ERDTVYSSSGV [NELL2_Y350_N347D] the phosphorylation enrichment was 0.52. MDDDQYALLTA [EFCAB6_Y675_T680A] gave a phosphorylation enrichment of 0.722. In the case of GYQPEYGQPAG [SYP_Y278_D277E], the phosphorylation enrichment is reported as 0.451. CENNRYGMGTS [PDHA1_Y227] showed a phosphorylation enrichment of 0.606. For TLNFCYQQVKS [PTK2_Y148_F147C], the phosphorylation enrichment was 0.709. With RRNTPYSQTMK [TET2_Y819_S817T] the phosphorylation enrichment was 0.365. Work on TFVVLYDAELT [ERCC4_Y581_R576T_YF] yielded a phosphorylation enrichment of 1.03. For ANFTEYVATRW [CDKL5_Y171_YF], the phosphorylation enrichment was 0.922. TFRPPYFHRDC [HGD_Y333_N337D_YF] showed a phosphorylation enrichment of 0.431. With PQDVTYAQLHS [LILRB4_Y412] the phosphorylation enrichment was 0.999. In the case of RIAFQYGDTDL [MYBPC3_Y340_V342D], the phosphorylation enrichment is reported as 0.825. For CTTIHYNFMSN [TP53_Y234_C238S_YF], the phosphorylation enrichment was 0.58. Work on LMLVLYGRIFR [HTR1A_Y215] yielded a phosphorylation enrichment of 0.958. For AKKKMYSCKTK [AGXT_Y231_R233C], the phosphorylation enrichment was 0.578.

These sequences were tested against FGFR1 (UniProt P11362) in the same assay as above.
Sequence of FGFR1 (P11362 whole entry, looked up): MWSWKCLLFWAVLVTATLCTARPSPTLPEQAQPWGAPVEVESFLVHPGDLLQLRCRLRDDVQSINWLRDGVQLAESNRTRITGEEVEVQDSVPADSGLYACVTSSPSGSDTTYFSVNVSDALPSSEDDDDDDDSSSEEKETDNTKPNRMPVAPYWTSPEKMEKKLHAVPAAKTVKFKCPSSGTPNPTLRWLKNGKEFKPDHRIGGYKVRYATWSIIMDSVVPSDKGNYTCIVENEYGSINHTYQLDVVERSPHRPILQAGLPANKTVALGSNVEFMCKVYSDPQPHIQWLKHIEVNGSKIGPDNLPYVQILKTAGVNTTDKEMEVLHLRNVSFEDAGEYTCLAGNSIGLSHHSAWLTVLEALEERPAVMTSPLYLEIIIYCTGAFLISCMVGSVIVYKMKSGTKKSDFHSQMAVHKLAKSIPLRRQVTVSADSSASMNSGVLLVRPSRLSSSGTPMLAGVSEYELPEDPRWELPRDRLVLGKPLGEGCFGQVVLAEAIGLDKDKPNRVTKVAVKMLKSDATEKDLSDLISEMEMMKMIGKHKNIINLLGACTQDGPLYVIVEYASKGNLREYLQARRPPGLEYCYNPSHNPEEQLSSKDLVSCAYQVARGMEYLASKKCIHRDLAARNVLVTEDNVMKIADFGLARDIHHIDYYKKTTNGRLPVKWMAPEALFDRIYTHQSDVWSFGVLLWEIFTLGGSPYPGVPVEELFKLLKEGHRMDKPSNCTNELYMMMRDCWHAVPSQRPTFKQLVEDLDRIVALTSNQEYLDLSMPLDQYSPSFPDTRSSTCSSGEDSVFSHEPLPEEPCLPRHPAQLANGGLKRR
Work on RPPFTYATLIR [FOXP3_Y342] yielded a phosphorylation enrichment of 0.913. For ICFSDYVEVAD [PHACTR1_Y525_R521C], the phosphorylation enrichment was 2.34. Sequence NGSKGYAYVHF [PABPC5_Y147] has a phosphorylation enrichment of 0.736. Work on KENITYMKREQ [L1TD1_Y24] yielded a phosphorylation enrichment of 0.462. KFFRVYQGQQP [MUTYH_Y494_V490F] showed a phosphorylation enrichment of 0.592. Sequence SSVKLYRVFCD [FGB_Y266_P265L_YF] has a phosphorylation enrichment of 0.487. For ELCSEYHKSRK [SPINK5_Y440_R441H], the phosphorylation enrichment was 0.513. Work on HRNGMYGLHQD [SGSH_Y89_Q85R] yielded a phosphorylation enrichment of 0.485. In the case of QEMMEYRRQIQ [DES_Y324_H326R], the phosphorylation enrichment is reported as 0.424. Work on LTAEVYFPSIK [C5orf64_Y60] yielded a phosphorylation enrichment of 0.866. For KNAEKYAEEDW [HSPA9_Y568_R573W], the phosphorylation enrichment was 0.763. GEDEPYSEPFA [APBA1_Y183_YF] gave a phosphorylation enrichment of 0.603. With VKMLEYRGKDV [CASP5_Y74_L75R] the phosphorylation enrichment was 0.489. SVVVPSEPPEV [TP53_Y220_Y220S] gave a phosphorylation enrichment of 0.503. With DYLEKYYKFGS [NNMT_Y24] the phosphorylation enrichment was 0.486. NTGFFYDLFGG [PTPN11_Y63_D61Y_YF] showed a phosphorylation enrichment of 0.509. TVSSDYLHPQY [CCPG1_Y569_F566S] gave a phosphorylation enrichment of 0.528. In the case of EYQLPYYNTVP [BMPR1A_Y457_M460T], the phosphorylation enrichment is reported as 7.09. QNKEDYAGLKE [GSTO1_Y139] was tested, and the phosphorylation enrichment was 0.893. ERDTVYSSSGV [NELL2_Y350_N347D] gave a phosphorylation enrichment of 0.502. MDDDQYALLTA [EFCAB6_Y675_T680A] gave a phosphorylation enrichment of 1.21. Work on GYQPEYGQPAG [SYP_Y278_D277E] yielded a phosphorylation enrichment of 0.401. For CENNRYGMGTS [PDHA1_Y227], the phosphorylation enrichment was 0.548. In the case of TLNFCYQQVKS [PTK2_Y148_F147C], the phosphorylation enrichment is reported as 0.617. In the case of RRNTPYSQTMK [TET2_Y819_S817T], the phosphorylation enrichment is reported as 0.273. TFVVLYDAELT [ERCC4_Y581_R576T_YF] was tested, and the phosphorylation enrichment was 0.696. ANFTEYVATRW [CDKL5_Y171_YF] showed a phosphorylation enrichment of 0.707. TFRPPYFHRDC [HGD_Y333_N337D_YF] gave a phosphorylation enrichment of 0.496. Sequence PQDVTYAQLHS [LILRB4_Y412] has a phosphorylation enrichment of 0.351. RIAFQYGDTDL [MYBPC3_Y340_V342D] was tested, and the phosphorylation enrichment was 0.703. Work on CTTIHYNFMSN [TP53_Y234_C238S_YF] yielded a phosphorylation enrichment of 0.561. LMLVLYGRIFR [HTR1A_Y215] was tested, and the phosphorylation enrichment was 0.372. AKKKMYSCKTK [AGXT_Y231_R233C] gave a phosphorylation enrichment of 0.588.
